Source: the supplement of paper PMC10567573
± gives the standard deviation.

Test: protein stability index of a GFP-peptide fusion (GPS, HEK-293T) (PSI 1-6); higher = more stable
[1] = treatment: DMSO, c terminus: a fixed tail appended
[2] = treatment: MLN4924 1 uM, 8 h, c terminus: a fixed tail appended
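Further: 24-mer peptide tiles fused after GFP, lentivirally expressed, FACS-sorted into six equal bins by GFP/DsRed ratio, decoded by Illumina sequencing, PSI is the read-weighted mean bin number.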

| Sequence | protein stability index [1] | protein stability index [2] | protein stability index (treatment: DMSO, c terminus: native) | protein stability index (treatment: MLN4924 1 uM, 8 h, c terminus: native) |
| --- | --- | --- | --- | --- |
| SFQDNLHNRKKHLNGLQHLKAKKV [ZMAT5] | 3.51 ± 0.46 | 3.49 ± 0.23 | – | – |
| QCPEPPIVVHCSAGIGRTGTFCSL [PTPN9] | 2.17 ± 0.26 | 2.14 ± 0.12 | – | – |
| ADKKRSGKKKISKADIGAPSGFKH [WAS] | 4.63 ± 0.27 | 4.87 ± 0.24 | – | – |
| DFANTIPGHGGIMDRFDCQYLMAT [CDS1] | 2.42 ± 0.21 | 2.63 ± 0.42 | – | – |
| LPCARVQICRAQGLETLFSKAQEL [ZSWIM9] | 2.87 ± 0.51 | 2.33 ± 0.79 | – | – |
| KVVQSLLNHGASVNNTTLTNSTPL [FEM1C] | 2.77 ± 0.21 | 2.83 ± 0.24 | – | – |
| SCTVTTVQPMDRLPYQHFSAHFTS [TBX5] | 2.23 ± 0.15 | 2.31 ± 0.17 | – | – |
| KHSNKKVMRTKSSEKAANDDHSVR [CPXM2] | 5.13 ± 0.29 | 5.2 ± 0.22 | – | – |
| FFSVIFMTVGILSNSLAIAILMKA [PTGFR] | 3.12 ± 0.26 | 2.75 ± 0.5 | – | – |
| PEPPAAVDFLEPDSGTCPEVDEEG [FCHO1] | 5.48 ± 0.26 | 5.54 ± 0.21 | – | – |
| DAQGSEMVTCKSEFYHDEFKRWIY [GAN] | 2.61 ± 0.46 | 2.52 ± 0.13 | – | – |
| CMFCNEEFLGNRSVILNHMAREHA [ZNF277] | 3.62 ± 0.38 | 3.52 ± 0.46 | – | – |
| ERLRLEQQKQQIMAALNSQTAVQF [ACBD3] | 3.36 ± 0.46 | 3.42 ± 0.28 | – | – |
| REDILSCYDVYSPDKEEQLPFGPF [PKD2L1] | 4.09 ± 0.17 | 3.93 ± 0.23 | – | – |
| YKVKERLGTLKNPPKKKMKLMSG [LCOR] | – | – | 2.51 ± 0.41 | 3.27 ± 0.068 |
| SDSVHIEDAEAVEQLREALHEALL [ESRRA] | 3.09 ± 0.42 | 3.29 ± 0.34 | – | – |
| IFSFGQLPLALVTWVPMFLSTLLA [SOAT2] | 2.9 ± 0.43 | 2.72 ± 0.56 | – | – |
| IDLLTFLTGQKAVKVHGLLKTFVK [GFOD1] | 2.93 ± 0.62 | 2.67 ± 0.31 | – | – |
| ARYAQQKHRIRRVLIVDWDVHHGQ [HDAC6] | 2.33 ± 0.19 | 2.31 ± 0.42 | – | – |
| PKKEANQAPKSKSGSRPRKPPPRK [LRRC59] | 4.92 ± 0.21 | 5 ± 0.18 | – | – |
| LRYTLWIPLYPLGCLAEAVSVIQS [HACD3] | 3.08 ± 0.49 | 3.11 ± 0.37 | – | – |
| TLSISDVRTLSEPPDKGEEQVNFC [ZBTB22] | 4.94 ± 0.21 | 5.09 ± 0.22 | – | – |
| THGALCLELLVNNGADVNIQSKDG [ANKRD44] | 3.99 ± 0.22 | 4.01 ± 0.37 | – | – |

| Sequence | protein stability index [1] | protein stability index [2] | protein stability index (treatment: DMSO, c terminus: native) | protein stability index (treatment: MLN4924 1 uM, 8 h, c terminus: native) |
| --- | --- | --- | --- | --- |
| DLPSSLLLPEDMALRNLPPLRAAH [SMG5] | 3.56 ± 0.29 | 3.44 ± 0.16 | – | – |
| SCDLPEERYRHEIAHDGQRIYVLG [KLHDC10] | 3.81 ± 0.17 | 3.75 ± 0.25 | – | – |
| SKKFKNCFQSCLCCCCYQSKSLMT [EDNRA] | 2.78 ± 0.1 | 2.84 ± 0.15 | – | – |
| RHRLITQVYLSHTAWTEACQVEVR [INTS4] | 2.37 ± 0.15 | 2.43 ± 0.51 | – | – |
| VKVPTTLAEYCVKTKAPAPDEGSD [CDC34] | 5.07 ± 0.43 | 4.97 ± 0.12 | – | – |
| KDRRFAYGRSDVVVLCFSIANPNS [RHOBTB1] | 2.74 ± 0.54 | 2.34 ± 0.46 | – | – |
| EDWVLLGMANGQQWLQSTSGSQRH [TLE6] | 3.41 ± 0.5 | 3.2 ± 0.4 | – | – |
| FRSPSMPCSVIRPILKRLERPQDR [CDC25B] | 3.64 ± 0.19 | 3.56 ± 0.2 | – | – |
| EPPKCLDPCVISQEIMEKYNIKLK [CFHR2] | 2.84 ± 0.27 | 2.87 ± 0.34 | – | – |
| LELVKYLLAAGANVHATTATGDTA [ANKRD17] | 2.16 ± 0.25 | 2.08 ± 0.4 | – | – |
| PRIIKAAPSCAIMISTYEFGKSFF [SLC25A39] | 2.56 ± 0.49 | 2.28 ± 0.32 | – | – |
| ILAVSFAPLVQPSKNDNGKPDSVG [PCMTD1] | 2.98 ± 0.27 | 3.14 ± 0.35 | – | – |
| MAAAEPSPRRVGFVGAGRMAGAIA [PYCR3] | 2.97 ± 0.079 | 3.38 ± 0.073 | – | – |
| RSCTPNAEVRHEIQDGTIHLYIYS [KMT2E] | 2.1 ± 0.33 | 2.57 ± 0.33 | – | – |
| LRDGAVPLPESRREIEELLAEAKY [KCTD10] | 4.5 ± 0.25 | 4.66 ± 0.28 | – | – |
| KWKVGIPSDPLVSIGALISKAHLE [ALDH8A1] | 2.48 ± 0.11 | 2.74 ± 0.17 | – | – |
| ARRELQAEREALQARLRDVSRREG [ZBED3] | 4.79 ± 0.15 | 4.8 ± 0.18 | – | – |
| LEELGTLNVFQTVSRMRTQRAFSI [PTPN9] | 2.48 ± 0.12 | 2.23 ± 0.17 | – | – |
| SFMDGYKQKNAYIGTQGPLENTYR [PTPN9] | 3.04 ± 0.16 | 2.92 ± 0.24 | – | – |
| CSYVVTRTISCHVQNGTYLQRVLQ [EMID1] | 2.44 ± 0.53 | 2.6 ± 0.36 | – | – |
| NTCSVITTLKGHEGSVACLWWDPI [WDFY1] | 2.09 ± 0.39 | 2.34 ± 0.46 | – | – |
| DDTPEVLNRALSNLSSRWKNWWVR [CDS2] | 2.89 ± 0.058 | 3.12 ± 0.25 | – | – |
| AITRVSDRFSGETSAAALSPMSAA [SMTNL2] | 4.06 ± 0.15 | 3.63 ± 0.29 | – | – |

| Sequence | protein stability index [1] | protein stability index [2] | protein stability index (treatment: DMSO, c terminus: native) | protein stability index (treatment: MLN4924 1 uM, 8 h, c terminus: native) |
| --- | --- | --- | --- | --- |
| ARLASPLPREEEIVFPEKLNGSVL [ADAMTS4] | 4.01 ± 0.42 | 4.16 ± 0.15 | – | – |
| AYGNRTECRNPQELESIRQDRDAL [FEM1B] | 4.71 ± 0.24 | 4.68 ± 0.16 | – | – |
| KPVDIWACGVILYILLVGYPPFWD [CAMK2B] | 3.27 ± 0.31 | 3.03 ± 0.17 | – | – |
| FSFMYILVGLTVIGAFLNLVVLRF [KCNK9] | 3.18 ± 0.13 | 3.25 ± 0.31 | – | – |
| APPLPGAESFPGSQVMGSGRGSLS [PLEKHN1] | 4.82 ± 0.28 | 4.61 ± 0.2 | – | – |
| PENLLLASKSKGAAVKLADFGLAI [CAMK2D] | 2.53 ± 0.38 | 2.13 ± 0.18 | – | – |
| MLSIFYFAIPVGSGLGYIAGSKVK [SPNS1] | 2.83 ± 0.34 | 3.05 ± 0.4 | – | – |
| EKQIRSFLIEGPLINTIRVVCASY [PLEKHN1] | 3.13 ± 0.74 | 2.79 ± 0.48 | – | – |
| NLKNDGRQVEKRRNSGPVVEKLKQ [MMP1] | 4.58 ± 0.24 | 4.41 ± 0.49 | – | – |
| LLSRNQLSTAASLGPSGLQNHGQH [LCOR] | 3.28 ± 0.095 | 3.46 ± 0.23 | – | – |
| AIMRSPQMVSAIVRTMQNTNDVET [CTNNB1] | 3.77 ± 0.098 | 3.81 ± 0.14 | – | – |
| PRFHMACPTFRVSIARLEMGPDEY [FBXO3] | 2.82 ± 0.21 | 2.72 ± 0.24 | – | – |
| FPKQILDQNNVIENEETGEFSIDN [MIA2] | 5.136 ± 0.027 | 5.06 ± 0.24 | – | – |
| NTEERQKRQVTHFQFLSWPDYGVP [PTPN9] | 3.17 ± 0.57 | 3.042 ± 0.028 | – | – |
| PQYRSYFMECLVDARMLDHLTKKD [PPFIA4] | 2.7 ± 0.2 | 2.58 ± 0.17 | – | – |
| SWLESCIVGWRCRVGQWVRMENVT [GMPPB] | 2.79 ± 0.63 | 2.69 ± 0.76 | – | – |
| GMFTFLSSVTAAVSGLLVGYELGI [SLC2A12] | 2.891 ± 0.011 | 2.75 ± 0.86 | – | – |
| GGNDLCVWNRKLDLLCKTSHLSDT [WDR41] | 3.16 ± 0.39 | 3.05 ± 0.18 | – | – |
| IPSTPEEVSADDETPNPPQSAQIA [MAGEA10] | 5.42 ± 0.1 | 5.44 ± 0.16 | – | – |
| SRFVETLVVADDKMAAFHGAGLKR [ADAMTS4] | 3.46 ± 0.089 | 4.26 ± 0.11 | – | – |
| LRHDEVRTYFHEFGHVMHQICAQV [NLN] | 2.31 ± 0.12 | 2.22 ± 0.26 | – | – |
| QRGHYRVARILIDLCSDVNVCSLL [RIPK4] | 2.9 ± 0.7 | 2.69 ± 0.28 | – | – |
| ELSRQVRSSVELELERCRQQAGLL [PPEF2] | 3.23 ± 0.25 | 3.2 ± 0.39 | – | – |

| Sequence | protein stability index [1] | protein stability index [2] | protein stability index (treatment: DMSO, c terminus: native) | protein stability index (treatment: MLN4924 1 uM, 8 h, c terminus: native) |
| --- | --- | --- | --- | --- |
| RESERRNHSLARHADILAAVETRL [FBXO28] | 3.71 ± 0.15 | 3.9 ± 0.27 | – | – |
| TPQEPWPGPTAPSPTSRPPWAVDP [PDLIM7] | 4.19 ± 0.21 | 4.28 ± 0.093 | – | – |
| ENFDHNTLALILQIPTQNTQARQV [PPFIA4] | 2.58 ± 0.21 | 2.81 ± 0.45 | – | – |
| SGYGFRPSMVSGGYVANSSNCISG [KRT71] | 2.82 ± 0.2 | 2.73 ± 0.16 | – | – |
| FLFVLARVPAGIFKHTLSISRALL [MFSD9] | 3.29 ± 0.23 | 2.81 ± 0.11 | – | – |
| DKSEYLEMEEGVKESLCAKEEKCQ [KCNA4] | 5.68 ± 0.1 | 5.54 ± 0.19 | – | – |
| LLSRLEEEEQDILQRLRENAAHLG [TRIM39] | 3.63 ± 0.16 | 3.71 ± 0.33 | – | – |
| SKLASNGTPMGTFAPLWEVFRVSS [FCHO1] | 2 ± 0.3 | 2.26 ± 0.22 | – | – |
| TGIVSVAFLLLPLPDELGSQLPQV [MOSPD3] | 2.75 ± 0.59 | 2.72 ± 0.86 | – | – |
| LYLLSGSIIAVAMQRGARLPAEVA [POMT2] | 2.81 ± 0.38 | 3.21 ± 0.77 | – | – |
| CSKQSGSFRKFRYGYNNVVTIPAG [ADAMTS4] | 2.3 ± 0.44 | 2.23 ± 0.35 | – | – |
| TMSIPVAMETDGPLFEDVQMLRKT [PPP2R5C] | 4.22 ± 0.12 | 4.3 ± 0.1 | – | – |
| HGASPGLRDGGGLTPLELLLRQLG [ANKRD9] | 2.66 ± 0.15 | 2.76 ± 0.35 | – | – |
| NVPVDDSLVKELLRMCSHGEGKIN [EFHC1] | 3.39 ± 0.2 | 3.55 ± 0.11 | – | – |
| VEVGDKTHWAVGVCRDSVSRKGEL [TRIM39] | 3.06 ± 0.15 | 3.2 ± 0.17 | – | – |
| GTHPEDHQGHSDQHHHHHHHHHGR [RHOBTB2] | 4.9 ± 0.16 | 5.01 ± 0.26 | – | – |
| IHGGVVNIHENKRTGSLFKIWLVV [KLHDC10] | 2.85 ± 0.47 | 2.45 ± 0.62 | – | – |
| EYVPGGELFSYLRNRGRFSSTTGL [PRKX] | 2.53 ± 0.18 | 2.82 ± 0.27 | – | – |
| EILYPALPTDGSTGVELAPRSAEP [PCDHGA10] | 4.57 ± 0.23 | 4.85 ± 0.1 | – | – |
| GPGFHAGTSALWRHLRSAHRRELE [ZBED3] | 2.73 ± 0.34 | 3.13 ± 0.53 | – | – |
